Measurements as given in PMC5934636.

T1: hLa R32A/K34A/K37A (human, UniProt P05455 1-408, R32A;K34A;K37A)
T1 sequence: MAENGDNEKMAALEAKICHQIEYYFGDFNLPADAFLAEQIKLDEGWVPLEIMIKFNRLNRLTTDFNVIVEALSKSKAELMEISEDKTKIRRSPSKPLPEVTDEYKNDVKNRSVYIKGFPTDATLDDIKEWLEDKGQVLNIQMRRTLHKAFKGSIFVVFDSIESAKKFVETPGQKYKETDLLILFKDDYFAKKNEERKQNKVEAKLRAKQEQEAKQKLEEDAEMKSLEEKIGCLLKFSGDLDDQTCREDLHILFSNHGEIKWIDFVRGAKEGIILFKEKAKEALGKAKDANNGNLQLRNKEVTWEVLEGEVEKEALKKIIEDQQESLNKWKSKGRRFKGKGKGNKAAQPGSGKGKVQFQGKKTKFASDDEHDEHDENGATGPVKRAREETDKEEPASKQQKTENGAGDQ

T2: hLa K86A/T87A/K88A (human, UniProt P05455 1-408, K86A;T87A;K88A)
T2 sequence: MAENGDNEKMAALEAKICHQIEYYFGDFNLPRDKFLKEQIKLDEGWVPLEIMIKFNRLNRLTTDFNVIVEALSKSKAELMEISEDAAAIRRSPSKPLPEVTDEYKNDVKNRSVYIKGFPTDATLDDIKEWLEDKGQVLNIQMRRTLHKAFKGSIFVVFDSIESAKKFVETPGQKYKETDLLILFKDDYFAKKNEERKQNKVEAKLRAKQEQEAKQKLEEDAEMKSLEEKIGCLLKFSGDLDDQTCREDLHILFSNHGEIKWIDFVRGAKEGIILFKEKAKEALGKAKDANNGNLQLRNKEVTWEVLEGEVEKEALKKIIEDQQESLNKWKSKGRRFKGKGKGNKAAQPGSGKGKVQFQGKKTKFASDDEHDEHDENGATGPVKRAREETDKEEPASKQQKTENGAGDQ

T3: human La (hLa) (human, UniProt P05455 1-408)
T3 sequence: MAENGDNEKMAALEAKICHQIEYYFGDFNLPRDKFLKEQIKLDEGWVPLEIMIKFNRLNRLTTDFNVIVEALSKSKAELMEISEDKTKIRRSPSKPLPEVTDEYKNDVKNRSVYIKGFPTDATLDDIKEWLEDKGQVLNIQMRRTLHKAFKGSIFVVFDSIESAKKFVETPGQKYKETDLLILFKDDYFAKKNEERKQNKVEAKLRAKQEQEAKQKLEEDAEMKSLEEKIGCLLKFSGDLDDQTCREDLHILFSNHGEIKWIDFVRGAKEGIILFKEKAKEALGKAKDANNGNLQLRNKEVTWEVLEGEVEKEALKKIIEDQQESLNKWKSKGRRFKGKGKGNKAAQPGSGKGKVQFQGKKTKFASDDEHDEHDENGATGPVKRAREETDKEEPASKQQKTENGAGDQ


Experiments:
[1] = target: T1, hLa R32A/K34A/K37A; test: EMSA
[2] = target: T2, hLa K86A/T87A/K88A; test: EMSA
[3] = target: T3, human La (hLa); test: competition

Binder | binding result [1] | binding result [2] | binding result [3]
AAAAAAAAAAAAAAAAAAAA (ssRNA) [A20] | binds |  | 
UUUUUUUUUU (ssRNA) [U10] | binds | binds | 
UUUUUUUUUUUUUUUUUUUU (ssRNA) [U20] |  |  | binds
